Article PMC12691643
Several values for one entry are separate records, joined by “and”; a condition that tells them apart may be missing. Equal values may be shown once.

B1: Nostrin, endogenous in murine DC2.4 cells (natural protein)
chain: MRDPLTDCSYNKVYKSLKEFAQHGDNFCKQITSVLQQRANLEISYAKGLQKLAVRLSKALQSTKKNCLSTAWAWASESMKSAADLHQKLGKAIELEAIKPTHQVLSMQEKKRKSLDNEVEKTANLVINNWNQQIKAKKKLMMSTKKHEALFHLVESSKQSLTQKEKQKLLNKLKKSTEKLEKEDESYYQKNMAGYSTRLKWESTLENCYKSMLELEKERIQLLCNNLNQYSQHISLFGQTLTTCHTQIHCAISKVDVEKDIQALMEETAILSIENKSELLLADYFEEDPKNPMDKERRKSLLKPKLGRLQRDIEKASRDKEGLERKLKALASSSSFSDAKSQKDMETLMDENSLKLDLLQANSYKLSSVLADLEQRPKPCHPCSTCIFKWKEKEHSHTYVKISRPLLTKRLEKAESKAPAGGQNNPSSSPSGSTVSQASKHLCKALYTFQARQDDELNLEKGDIVTVHEKKEEGWWFGSLKGKRGHFPAAYVEELPPKAGNTATQA
B2: Shp2 (Ptpn11), endogenous in murine DC2.4 cells (natural protein)
chain: MTSRRWFHPNITGVEAENLLLTRGVDGSFLARPSKSNPGDFTLSVRRNGAVTHIKIQNTGDYYDLYGGEKFATLAELVQYYMEHHGQLKEKNGDVIELKYPLNCADPTSERWFHGHLSGKEAEKLLTEKGKHGSFLVRESQSHPGDFVLSVRTGDDKGESNDGKSKVTHVMIRCQELKYDVGGGERFDSLTDLVEHYKKNPMVETLGTVLQLKQPLNTTRINAAEIESRVRELSKLAETTDKVKQGFWEEFETLQQQECKLLYSRKEGQRQENKNKNRYKNILPFDHTRVVLHDGDPNEPVSDYINANIIMPEFETKCNNSKPKKSYIATQGCLQNTVNDFWRMVFQENSRVIVMTTKEVERGKSKCVKYWPDEYALKEYGVMRVRNVKESAAHDYTLRELKLSKVGQGNTERTVWQYHFRTWPDHGVPSDPGGVLDFLEEVHHKQESIVDAGPVVVHCSAGIGRTGTFIVIDILIDIIREKGVDCDIDVPKTIQMVRSQRSGMVQTEAQYRFIYMAVQHYIETLQRRIEEEQKSKRKGHEYTNIKYSLVDQTSGDQSPLPPCTPTPPCAEMREDSARVYENVGLMQQQRSFR
B3: Arhgef7, endogenous in murine DC2.4 cells (natural protein)
chain: MNSAEQTVTWLITLGVLESPKKTISDPEVFLQASLKDGVVLCRLLERLLPGTIEKVYPEPRNESECLSNIREFLRACGASLRLETFDANDLYQGQNFNKVLSSLVTLNKVTADIGLGSDSVCARPSSHRIKSFDSLGSQSSHSRTSKLLQSQYRSLDMTDNTNSQLVVRAKFNFQQTNEDELSFSKGDVIHVTRVEEGGWWEGTHNGRTGWFPSNYVREIKPSEKPVSPKSGTLKSPPKGFDTTAINKSYYNVVLQNILETEHEYSKELQSVLSTYLRPLQTSDKLSSANTSYLMGNLEEISSFQQVLVQSLEECTKSPEAQQRVGGCFLSLMPQMRTLYLAYCANHPSAVSVLTEHSEDLGEFMETKGASSPGILVLTTGLSKPFMRLDKYPTLLKELERHMEDYHPDRQDIQKSMTAFKNLSAQCQEVRKRKELELQILTEPIRSWEGDDIKTLGSVTYMSQVTIQCAGSEEKNERYLLLFPNLLLMLSASPRMSGFIYQGKLPTTGMTITKLEDSENHRNAFEISGSMIERILVSCTSQQDLHEWVEHLQKQTKVTSVSNPTIKPHSVPSHTLPSHPLTPSSKHADSKPVALTPAYHTLPHPSHHGTPHTTISWGPLEPPKTPKPWSLSCLRPAPPLRPSAALCYKEDLSKSPKTMKKLLPKRKPERKPSDEEFAVRKSTAALEEDAQILKVIEAYCTSAKTRQTLNSTWQGTDLMHNHVLADDDQSSLDSLGRRSSLSRLEPSDLSEDSEYDSIWTAHSYRMGSASRSRKESAPQVLLPEEEKIIVEETKSNGQTVIEEKSLVDTVYALKDEVQELRQDNKKMKKSLEEEQRARKDLEKLVRKVLKNMNDPAWDETNL
B4: Git2, endogenous in murine DC2.4 cells (natural protein)
chain: MSKRLRSSDVCADCNGPDPSWASVNRGTFICDECCSVHRSLGRHISQVRHLKHTAWPPTLLQMVETLYNNGANSIWEHSLLDPASIMSGRRKANPQDKVHPNKAEFIRAKYQMLAFVHRLPCREDDSVTAKDLSKQLHSSVRTGNLETCLRLLSLGAQANFFHPEKGSTPLHVASKAGQILQAELLAVYGADPGTQDSSGKTPVDYARQGGHHELAERLIEIQYELTDRLAFYLCGRKPDHKSGQHFLIPQRADSLDLSELAKAAKKKLQSLSNHLFEELAMDVYDEVDRRETDAVWLATQNHSTLVTETTVVPFLPVNPEYSSTRNQGRQKLARFNAHEFATLVIDILSDAKRRQQGSPLSRSKDNVELILRTVSTQHSTESQDNDQPDYDSVASDEDTDVETRASKANRQKLQTLQSENSSLRRQATASACQVQTGSDHKDTASHSSLKRRPSARGSRPMSMYETGSGQKPYLPMGEASHPEESRTRLQPFPTHIGRSALVTSSSSLPSFPSTLSWSRDESARRASRLEKQNSTPESDYDNTACDPEPDDTGSTRKGRQRSMLWQGDGLLPDTAEPHSVPSPTLPSTEDVIRKTEQITKNIQELLRAAQENKHDSYIPCSERIHVAVTEMAALFPKKPKSDTVRTSLRLLTSSAYRLQSECRKALPGDSSLPTDVQLVTQQVIQCAYDIAKAAKQLVTITTKENSS
B5: Git1, endogenous in murine DC2.4 cells (natural protein)
chain: MSRKGPRAEVCADCSAPDPGWASISRGVLVCDECCSVHRSLGRHISIVKHLRHSAWPPTLLQMVHTLASNGANSIWEHSLLDPAQVQSGRRKANPQDKVHPIKSEFIRAKYQMLAFVHKLPCRDDDGVTAKDLSKQLHSSVRTGNLETCLRLLSLGAQANFFHPEKGTTPLHVAAKAGQTLQAELLVVYGADPGSPDVNGRTPIDYARQAGHHELAERLVECQYELTDRLAFYLCGRKPDHKNGHYIIPQMADRSRQKCMSQSLDLSELAKAAKKKLQALSNRLFEELAMDVYDEVDRRENDAVWLATQNHSTLVTERSAVPFLPVNPEYSATRNQGRQKLARFNAREFATLIIDILSEAKRRQQGKSLSSPTDNLELSARSQSELDDQHDYDSVASDEDTDQEPLPSAGATRNNRARSMDSSDLSDGAVTLQEYLELKKALATSEAKVQQLMKVNSSLSDELRRLQREIHKLQAENLQLRQPPGPVPPPSLPSERAEHTLMGPGGSTHRRDRQAFSMYEPGSALKPFGGTPGDELATRLQPFHSTELEDDAIYSVHVPAGLYRIRKGVSASSVPFTPSSPLLSCSQEGSRHASKLSRHGSGADSDYENTQSGDPLLGLEGKRFLELSKEDELHPELESLDGDLDPGLPSTEDVILKTEQVTKNIQELLRAAQEFKHDSFVPCSEKIHLAVTEMASLFPKRPALEPVRSSLRLLNASAYRLQSECRKTVPPEPGAPVDFQLLTQQVIQCAYDIAKAAKQLVTITTREKKQ

Tests used:
Test in all cases: affinity purification with mass spectrometry; HA-tagged TgWIP variants pulled down by the HA tag from lysates of DC2.4 cells infected 4 h at MOI 7; host partners by mass spectrometry; values are negative fold changes in peptide counts of the mutant immunoprecipitations relative to TgWIP^WT
[1] = target: TgWIP^(PRR3 mut), HA-tagged (Toxoplasma gondii)
[2] = target: TgWIP^Y150A/Y199A, HA-tagged (Toxoplasma gondii)
[3] = target: TgWIP^(PRR2 mut), HA-tagged (Toxoplasma gondii)
[4] = target: TgWIP^(WIRS mut), HA-tagged (Toxoplasma gondii)

| Molecule | negative fold change in peptide counts relative to TgWIP^WT [1] [fold] | negative fold change in peptide counts relative to TgWIP^WT [2] | negative fold change in peptide counts relative to TgWIP^WT [3] [fold] | negative fold change in peptide counts relative to TgWIP^WT [4] [fold] |
| --- | --- | --- | --- | --- |
| Cyfip1, endogenous in murine DC2.4 cells (from UniProt Q7TMB8 1-1253) (natural protein) | 5 | 1 fold | 2 | 2 |
| Shp1 (Ptpn6), endogenous in murine DC2.4 cells (from UniProt P29351 1-595) (natural protein) | 3 | 32 fold | 3 | 2 |
| Lrrk1, endogenous in murine DC2.4 cells (from UniProt Q3UHC2 1-2014) (natural protein) | 3 | 1 fold | 3 | 1 |
| Abi1, endogenous in murine DC2.4 cells (from UniProt Q8CBW3 1-481) (natural protein) | 6 | 2 fold | 4 | 4 |
| Nck2, endogenous in murine DC2.4 cells (from UniProt O55033 1-380) (natural protein) | 3 | 1 fold | 1 | 1 |
| Grb2, endogenous in murine DC2.4 cells (from UniProt Q60631 1-217) (natural protein) | 3 | 4 fold | 6 | 2 |
| Pstpip1, endogenous in murine DC2.4 cells (from UniProt P97814 1-415) (natural protein) | 5 | 1 fold | 8 | 1 |
| Wasf2 (Wave2), endogenous in murine DC2.4 cells (from UniProt Q8BH43 1-497) (natural protein) | 15 | 2 fold | 3 | 3 |
| Cyfip2, endogenous in murine DC2.4 cells (from UniProt Q5SQX6 1-1253) (natural protein) | 5 | 2 fold | 3 | 2 |
| B1 | 5 | 1 fold | 6 | 3 |
| B2 |  | 39 fold | 3 |  |
| B3 | 8 | 3 fold and 2 fold | 4 | 2 |
| B4 |  | 3 fold | 2 | 2 |
| B5 | 11 | 2 fold | 4 | 2 |
